# Measurements published in publication PMC3695512, “Recognition of two distinct elements in the RNA substrate by the RNA-binding domain of the T. thermophilus DEAD box helicase Hera”.
# Where a chain is given by its changes, count along the chain named.
# T1: GST-Hera_RBD (Thermus thermophilus, UniProt O07897 424-510)
# T1 sequence: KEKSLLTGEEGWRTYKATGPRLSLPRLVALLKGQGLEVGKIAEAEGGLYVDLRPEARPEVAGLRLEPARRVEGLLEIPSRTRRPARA
# T2: Hera_RBD_dC-tail (Thermus thermophilus, UniProt O07897 424-491, del492-510)
# T2 sequence: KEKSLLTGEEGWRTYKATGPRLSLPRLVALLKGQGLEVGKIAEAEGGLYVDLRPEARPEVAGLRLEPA
# T3: Hera_K463A (Thermus thermophilus, UniProt O07897 1-510, K463A)
# T3 sequence: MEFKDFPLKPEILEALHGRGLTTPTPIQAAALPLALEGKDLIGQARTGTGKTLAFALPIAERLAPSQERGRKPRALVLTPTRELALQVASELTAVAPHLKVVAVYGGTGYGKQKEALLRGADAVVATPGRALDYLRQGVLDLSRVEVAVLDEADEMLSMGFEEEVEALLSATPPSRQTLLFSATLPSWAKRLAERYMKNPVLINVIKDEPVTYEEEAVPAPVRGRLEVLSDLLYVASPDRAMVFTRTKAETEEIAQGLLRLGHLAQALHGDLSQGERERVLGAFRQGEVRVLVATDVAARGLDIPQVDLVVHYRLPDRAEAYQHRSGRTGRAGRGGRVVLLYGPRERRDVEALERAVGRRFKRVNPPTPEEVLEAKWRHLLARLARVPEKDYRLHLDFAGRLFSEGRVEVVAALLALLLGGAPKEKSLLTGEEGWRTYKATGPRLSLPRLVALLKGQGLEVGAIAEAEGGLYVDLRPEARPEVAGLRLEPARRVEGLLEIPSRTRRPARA
# T4: Hera full-length (Thermus thermophilus, UniProt O07897 1-510)
# T4 sequence: T3 sequence with A463K
# T5: Hera_core (Thermus thermophilus, UniProt O07897 1-369)
# T5 sequence: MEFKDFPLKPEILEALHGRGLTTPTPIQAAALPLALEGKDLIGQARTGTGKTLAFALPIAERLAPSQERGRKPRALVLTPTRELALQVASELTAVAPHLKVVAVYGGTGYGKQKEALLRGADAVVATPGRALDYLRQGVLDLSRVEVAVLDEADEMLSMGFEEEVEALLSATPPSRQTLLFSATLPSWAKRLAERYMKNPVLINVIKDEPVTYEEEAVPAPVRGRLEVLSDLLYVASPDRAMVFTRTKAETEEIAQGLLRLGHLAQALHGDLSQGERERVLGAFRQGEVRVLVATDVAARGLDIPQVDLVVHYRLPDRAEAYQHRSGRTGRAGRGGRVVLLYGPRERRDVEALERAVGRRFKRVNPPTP
# Experiments:
# [1] = molecular target: T1, GST-Hera_RBD; test: EMSA; 6 uM RNA; 12% glycerol; Anisotropy: 50 mM Tris/HCl pH 7.5, 150 mM NaCl, 5 mM MgCl2 (Fig 2), 25 C, 50 nM RNA; EMSA: same Tris/NaCl, 12% glycerol, 25 C; NMR: 25 mM Bis-Tris/HCl pH 6.0, 50 mM NaCl, 10% D2O, 37 C; settings: protein: recombinant; tags: N-terminal GST; label: 5'-fluorescein; hairpin with 5' single strand
# [2] = molecular target: T2, Hera_RBD_dC-tail; test: fluorescence anisotropy; 5 mM Mg2+; Anisotropy: 50 mM Tris/HCl pH 7.5, 150 mM NaCl, 5 mM MgCl2 (Fig 2), 25 C, 50 nM RNA; EMSA: same Tris/NaCl, 12% glycerol, 25 C; NMR: 25 mM Bis-Tris/HCl pH 6.0, 50 mM NaCl, 10% D2O, 37 C; settings: protein: recombinant; label: 5'-fluorescein; hairpin with 5' single strand
# [3] = molecular target: T3, Hera_K463A; test: as above; settings: protein: recombinant; chain copies: 2; label: 5'-fluorescein; hairpin with 5' single strand
# [4] = molecular target: T4, Hera full-length; test: fluorescence anisotropy; no ATP; 5 mM Mg2+; Anisotropy: 50 mM Tris/HCl pH 7.5, 150 mM NaCl, 5 mM MgCl2 (Fig 2), 25 C, 50 nM RNA; EMSA: same Tris/NaCl, 12% glycerol, 25 C; NMR: 25 mM Bis-Tris/HCl pH 6.0, 50 mM NaCl, 10% D2O, 37 C; settings: protein: recombinant; chain copies: 2; label: 5'-fluorescein; hairpin with 5' single strand
# [5] = molecular target: T1, GST-Hera_RBD; test: as above; settings: protein: recombinant; tags: N-terminal GST; label: 5'-fluorescein; hairpin with 5' single strand
# [6] = molecular target: T5, Hera_core; test: as above; settings: protein: recombinant; label: 5'-fluorescein; hairpin with 5' single strand
binder,measurement,setting,value
GCAGGUCCCAAGGGUUGGGCUGUUCGCCCAUU (structured_RNA) [32mer],Kd,[1],~7000 nM
same,Kd,[2],13000 nM
same,Kd,[3],1000 ± 170 nM
same,Kd,[4],130 ± 70 nM
same,Kd,[5],450 ± 36 nM
same,Kd,[6],1000 ± 180 nM
